Measured values taken from article PMC9802656 (2022).

What was measured:
[1] = molecular target: SARS-CoV-2 WT S protein expressed on HEK293T cells (SARS-CoV-2, UniProt P0DTC2); assay: FACS
[2] = molecular target: SARS-CoV-2 S protein (entire S ectodomain) as used with m31A7 (SARS-CoV-2, UniProt P0DTC2 14-1213); assay: ELISA
SARS-CoV-2 S protein S1 = SARS-CoV-2 S protein S1 (SARS-CoV-2); assay: ELISA

B1: monoclonal antibody m31A7 (IgG) (antibody, V domains shown)
VH: EVQLQQSGPEMVKPGASVKISCKTSGYTFTEYTIYWVKQSHGKSLEWLGGINPNIGDTTYNQKFKGKATLTVDTSSSTAYMELRSLTSEDSAVYYCAREVYNYSFAYWGQGTLVTVSA
VL: DIVMSQSPSSLAVSVGEKVTMSCKSSQSLLYSSNQKNYLAWYQQKLGQTPKLLIYWASSRESGVPDRFTGSGSGTDFTLTISSVRAEDLAVYYCQQYYRYPLTFGVGTKLELK
EC50 [1]: 0.0685 nM | EC50 [2]: 0.0312 nM | EC50 (SARS-CoV-2 S protein S1): 0.0235 nM
